Target: T1, P-selectin glycoprotein ligand-1 (UniProt Q14242)
T1 sequence: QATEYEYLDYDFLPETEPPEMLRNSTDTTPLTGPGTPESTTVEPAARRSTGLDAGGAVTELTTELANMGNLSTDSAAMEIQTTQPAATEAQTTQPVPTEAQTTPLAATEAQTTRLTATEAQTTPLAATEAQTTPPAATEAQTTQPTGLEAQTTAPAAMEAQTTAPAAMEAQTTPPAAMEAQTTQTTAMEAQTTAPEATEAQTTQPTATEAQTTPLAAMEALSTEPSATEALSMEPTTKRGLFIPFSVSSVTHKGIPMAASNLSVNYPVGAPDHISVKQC

mocarhagin purified from the venom of the Mozambiquan spitting cobra, Naja mossambica mossambica
proteolytic cleavage of PSGL-1: Mocarhagin cleaves a ten amino acid peptide from the mature N-terminus of PSGL-1 and abolishes the ability of PSGL-1 to bind P-selectin

— patent publication US6881404
